These results are taken from publication PMC3189932, “Viral Double-Strand RNA-Binding Proteins Can Enhance Innate Immune Signaling by Toll-Like Receptor 3”.

One data set concerns the target R-cp (Ross River virus, UniProt P13890 1-270). In words: UV crosslinking; 4 mM Mg2+; 50 mM Tris-HCl pH 7.5, 4 mM MgCl2, 50 mM NaCl, 1 mM DTT; 400 ng protein, 1 pmol RNA; UV 1200 mJ 3 min then SDS-PAGE (crosslinking); nondenaturing stacked 5/20%. To be noted: protein: recombinant; label: Cy5; hairpin, 11-bp stem, GNRA tetraloop.
Another data set addresses T1, B-cp (Brome mosaic virus, UniProt P03602 1-189).
T1 sequence: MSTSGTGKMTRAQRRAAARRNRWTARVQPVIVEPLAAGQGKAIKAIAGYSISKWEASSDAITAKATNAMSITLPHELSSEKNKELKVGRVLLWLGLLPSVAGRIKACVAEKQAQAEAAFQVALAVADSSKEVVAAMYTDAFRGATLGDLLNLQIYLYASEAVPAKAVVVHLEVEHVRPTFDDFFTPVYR
Described as above. To be noted: protein: native; label: Cy5; hairpin, 11-bp stem, GNRA tetraloop.

In the next data set the target is H-cp183 (Hepatitis B virus, UniProt P03147 1-183). The description is as above. To be noted: protein: recombinant; chain copies: 2; label: Cy5; hairpin, 11-bp stem, GNRA tetraloop.
A further data set concerns the target H-cp149 (Hepatitis B virus, UniProt P03147 1-149). In words: UV crosslinking; 4 mM Mg2+; no shift; 50 mM Tris-HCl pH 7.5, 4 mM MgCl2, 50 mM NaCl, 1 mM DTT; 400 ng protein, 1 pmol RNA; UV 1200 mJ 3 min then SDS-PAGE (crosslinking); nondenaturing stacked 5/20%. The following applies: protein: recombinant; chain copies: 2; label: Cy5; hairpin, 11-bp stem, GNRA tetraloop.

Chain of H-cp149 (P03147 1-149): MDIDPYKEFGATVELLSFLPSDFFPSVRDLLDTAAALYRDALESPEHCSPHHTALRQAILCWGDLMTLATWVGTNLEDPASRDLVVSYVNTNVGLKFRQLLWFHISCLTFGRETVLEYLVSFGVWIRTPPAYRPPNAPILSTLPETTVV
Chain of R-cp (P13890 1-270): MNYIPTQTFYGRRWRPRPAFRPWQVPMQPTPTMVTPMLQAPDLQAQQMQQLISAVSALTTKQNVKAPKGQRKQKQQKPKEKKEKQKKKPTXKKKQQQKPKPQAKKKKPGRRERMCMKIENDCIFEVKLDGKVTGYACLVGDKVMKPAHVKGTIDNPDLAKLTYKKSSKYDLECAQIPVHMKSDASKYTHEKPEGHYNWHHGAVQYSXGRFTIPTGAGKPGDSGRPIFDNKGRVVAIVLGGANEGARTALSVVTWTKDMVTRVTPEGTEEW
Chain of H-cp183 (P03147 whole entry): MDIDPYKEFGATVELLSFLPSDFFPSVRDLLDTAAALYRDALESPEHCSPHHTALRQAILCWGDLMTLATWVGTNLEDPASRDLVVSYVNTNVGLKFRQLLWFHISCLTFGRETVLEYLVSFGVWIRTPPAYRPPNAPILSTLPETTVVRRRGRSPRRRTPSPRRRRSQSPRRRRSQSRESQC

As for CCAAGUCAUUCGCAAGAGUGGCUUGG (structured_RNA) [SL26], the binding result is “binds” in the data set with R-cp, “binds” in the data set with B-cp, “binds” with H-cp183 and “no binding” with H-cp149.
